Source: patent US20250237661A1 (MESO SCALE TECHNOLOGIES, published 2025)

Biological target: T1, angiotensin-converting enzyme 2 (ACE2), labeled with a detection label (human, UniProt Q9BYF1 18-740)
T1 construct: also called labeled ACE2
Test: labeled ACE2 on immobilized Mixed Panel antigens, ECL

T1 sequence (Q9BYF1 18-740 limits assumed): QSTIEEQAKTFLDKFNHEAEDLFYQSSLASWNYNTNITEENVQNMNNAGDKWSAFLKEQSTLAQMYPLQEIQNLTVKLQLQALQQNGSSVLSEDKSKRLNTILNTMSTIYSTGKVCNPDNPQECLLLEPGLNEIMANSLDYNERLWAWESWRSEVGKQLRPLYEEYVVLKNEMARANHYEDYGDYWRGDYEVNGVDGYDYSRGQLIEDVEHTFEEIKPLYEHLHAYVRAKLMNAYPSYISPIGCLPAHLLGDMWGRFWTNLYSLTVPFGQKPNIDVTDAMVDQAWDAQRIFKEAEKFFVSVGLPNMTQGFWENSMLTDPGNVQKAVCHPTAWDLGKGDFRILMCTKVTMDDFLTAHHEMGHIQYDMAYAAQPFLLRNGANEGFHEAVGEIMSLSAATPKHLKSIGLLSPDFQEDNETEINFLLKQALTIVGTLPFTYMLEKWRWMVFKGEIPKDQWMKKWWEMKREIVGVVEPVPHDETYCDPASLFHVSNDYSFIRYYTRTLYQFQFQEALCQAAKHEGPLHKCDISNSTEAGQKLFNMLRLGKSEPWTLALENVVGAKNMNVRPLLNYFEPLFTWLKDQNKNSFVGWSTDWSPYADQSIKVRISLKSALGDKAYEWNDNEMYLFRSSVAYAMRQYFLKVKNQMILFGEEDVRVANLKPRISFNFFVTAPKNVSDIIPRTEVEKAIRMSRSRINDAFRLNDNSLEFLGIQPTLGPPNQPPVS

B1: HCoV-OC43 S protein (other)
chain: AVIGDLKCTSDNINDKDTGPPPISTDTVDVTNGLGTYYVLDRVYLNTTLFLNGYYPTSGSTYRNMALKGSVLLSRLWFKPPFLSDFINGIFAKVKNTKVIKDRVMYSEFPAITIGSTFVNTSYSVVVQPRTINSTQDGDNKLQGLLEVSVCQYNMCEYPQTICHPNLGNHRKELWHLDTGVVSCLYKRNFTYDVNADYLYFHFYQEGGTFYAYFTDTGVVTKFLFNVYLGMALSHYYVMPLTCNSKLTLEYWVTPLTSRQYLLAFNQDGIIFNAEDCMSDFMSEIKCKTQSIAPPTGVYELNGYTVQPIADVYRRKPNLPNCNIEAWLNDKSVPSPLNWERKTFSNCNFNMSSLMSFIQADSFTCNNIDAAKIYGMCFSSITIDKFAIPNGRKVDLQLGNLGYLQSFNYRIDTTATSCQLYYNLPAANVSVSRFNPSTWNKRFGFIEDSVFKPRPAGVLTNHDVVYAQHCFKAPKNFCPCKLNGSCVGSGPGKNNGIGTCPAGTNYLTCDNLCTPDPITFTGTYKCPQTKSLVGIGEHCSGLAVKSDYCGGNSCTCRPQAFLGWSADSCLQGDKCNIFANFILHDVNSGLTCSTDLQKANTDIILGVCVNYDLYGILGQGIFVEVNATYYNSWQNLLYDSNGNLYGFRDYIINRTFMIRSCYSGRVSAAFHANSSEPALLFRNIKCNYVFNNSLTRQLQPINYFDSYLGCVVNAYNSTAISVQTCDLTVGSGYCVDYSKNRRSRGAITTGYRFTNFEPFTVNSVNDSLEPVGGLYEIQIPSEFTIGNMVEFIQTSSPKVTIDCAAFVCGDYAACKSQLVEYGSFCDNINAILTEVNELLDTTQLQVANSLMNGVTLSTKLKDGVNFNVDDINFSPVLGCLGSECSKASSRSAIEDLLFDKVKLSDVGFVEAYNNCTGGAEIRDLICVQSYKGIKVLPPLLSENQISGYTLAATSASLFPPWTAAAGVPFYLNVQYRINGLGVTMDVLSQNQKLIANAFNNALYAIQEGFDATNSALVKIQAVVNANAEALNNLLQQLSNRFGAISASLQEILSRLDALEAEAQIDRLINGRLTALNAYVSQQLSDSTLVKFSAAQAMEKVNECVKSQSSRINFCGNGNHIISLVQNAPYGLYFIHFSYVPTKYVTARVSPGLCIAGDRGIAPKSGYFVNVNNTWMYTGSGYYYPEPITENNVVVMSTCAVNYTKAPYVMLNTSIPNLPDFKEELDQWFKNQTSVAPDLSLDYINVTFLDLQVEMNRLQEAIKVLNQSYINLKDIGTYEYYVKWP
B1: no binding.
